Test results reported in IntAct's records for PubMed 18627465.

B1: Complement factor H (Homo sapiens), P08603 (parent)
chain: MRLLAKIICLMLWAICVAEDCNELPPRRNTEILTGSWSDQTYPEGTQAIYKCRPGYRSLGNVIMVCRKGEWVALNPLRKCQKRPCGHPGDTPFGTFTLTGGNVFEYGVKAVYTCNEGYQLLGEINYRECDTDGWTNDIPICEVVKCLPVTAPENGKIVSSAMEPDREYHFGQAVRFVCNSGYKIEGDEEMHCSDDGFWSKEKPKCVEISCKSPDVINGSPISQKIIYKENERFQYKCNMGYEYSERGDAVCTESGWRPLPSCEEKSCDNPYIPNGDYSPLRIKHRTGDEITYQCRNGFYPATRGNTAKCTSTGWIPAPRCTLKPCDYPDIKHGGLYHENMRRPYFPVAVGKYYSYYCDEHFETPSGSYWDHIHCTQDGWSPAVPCLRKCYFPYLENGYNQNYGRKFVQGKSIDVACHPGYALPKAQTTVTCMENGWSPTPRCIRVKTCSKSSIDIENGFISESQYTYALKEKAKYQCKLGYVTADGETSGSITCGKDGWSAQPTCIKSCDIPVFMNARTKNDFTWFKLNDTLDYECHDGYESNTGSTTGSIVCGYNGWSDLPICYERECELPKIDVHLVPDRKKDQYKVGEVLKFSCKPGFTIVGPNSVQCYHFGLSPDLPICKEQVQSCGPPPELLNGNVKEKTKEEYGHSEVVEYYCNPRFLMKGPNKIQCVDGEWTTLPVCIVEESTCGDIPELEHGWAQLSSPPYYYGDSVEFNCSESFTMIGHRSITCIHGVWTQLPQCVAIDKLKKCKSSNLIILEEHLKNKKEFDHNSNIRYRCRGKEGWIHTVCINGRWDPEVNCSMAQIQLCPPPPQIPNSHNMTTTLNYRDGEKVSVLCQENYLIQEGEEITCKDGRWQSIPLCVEKIPCSQPPQIEHGTINSSRSSQESYAHGTKLSYTCEGGFRISEENETTCYMGKWSSPPQCEGLPCKSPPEISHGVVAHMSDSYQYGEEVTYKCFEGFGIDGPAIAKCLGEKWSHPPSCIKTDCLSLPSFENAIPMGEKKDVYKAGEQVTYTCATYYKMDGASNVTCINSRWTGRPTCRDTSCVNPPTVQNAYIVSRQMSKYPSGERVRYQCRSPYEMFGDEEVMCLNGNWTEPPQCKDSTGKCGPPPPIDNGDITSFPLSVYAPASSVEYQCQNLYQLEGNKRITCRNGQWSEPPKCLHPCVISREIMENYNIALRWTAKQKLYSRTGESVEFVCKRGYRLSSRSHTLRTTCWDGKLEYPTCAKR
partner: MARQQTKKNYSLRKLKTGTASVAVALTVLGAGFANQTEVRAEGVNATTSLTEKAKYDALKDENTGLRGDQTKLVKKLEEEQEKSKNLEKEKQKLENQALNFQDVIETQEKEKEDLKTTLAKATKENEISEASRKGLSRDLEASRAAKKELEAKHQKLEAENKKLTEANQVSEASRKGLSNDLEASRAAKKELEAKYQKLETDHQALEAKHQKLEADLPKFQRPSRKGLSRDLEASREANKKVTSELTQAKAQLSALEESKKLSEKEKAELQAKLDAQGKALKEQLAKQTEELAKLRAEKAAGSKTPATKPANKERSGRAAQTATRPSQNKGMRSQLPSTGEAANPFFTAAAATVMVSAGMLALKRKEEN

Variants of: B1
Conditions: with mx_strp9 ennX

Variant	effect of a mutation on the interaction
Y402H	decreasing interaction strength
